From patent US20240116985A1 (published 2024)
Starred links: 1 amine or outer side, 2 acyl side, 3 side chain; linkers in the order of their positions; H or OH if unused. Positions of bridges follow the written chain, without caps; N, C: chain ends. Non-standard residues stand in square brackets, D forms with d. Primed or numbered codes have the meaning given here. PyrS2″ = (S)-3-amino-1-((pent-4-en-1-yloxy)carbonyl)pyrrolidine-3-carboxylic acid (stapling residue), C=CCCCOC(=O)N1CC[C@@](N[*:1])(C(=O)[*:2])C1; B5(4) = 2,2-bis(4-pentenyl)glycine = 2-amino-2-(pent-4-en-1-yl)hept-6-enoic acid (stitching residue), C=CCCCC(CCCC=C)(N[*:1])C(=O)[*:2]; AcLys″ = N6-acetyl-lysine, CC(=O)NCCCC[C@H](N[*:1])C(=O)[*:2]; Phe(3-COOH) = N[C@@H](Cc1cccc(C(=O)O)c1)C(=O)O; 2F3MeF = Cc1cccc(C[C@H](N[*:1])C(=O)[*:2])c1F; Phe(2-CF3) = N[C@@H](Cc1ccccc1C(F)(F)F)C(=O)O; AcLys = CC(=O)NCCCC[C@H](N[*:1])C(=O)[*:2]; Bta = N[C@@H](Cc1csc2ccccc12)C(=O)O; αAllylPro = C=CC[C@@]1(C(=O)O)CCCN1; tBuAla = CC(C)(C)C[C@H](N)C(=O)O; Nle = CCCC[C@H](N)C(=O)O

T1: B-cat-Halo (UniProt P35222 1-781, HaloTag NanoBRET 618 Ligand bound in the assay)
T1 sequence (looked up): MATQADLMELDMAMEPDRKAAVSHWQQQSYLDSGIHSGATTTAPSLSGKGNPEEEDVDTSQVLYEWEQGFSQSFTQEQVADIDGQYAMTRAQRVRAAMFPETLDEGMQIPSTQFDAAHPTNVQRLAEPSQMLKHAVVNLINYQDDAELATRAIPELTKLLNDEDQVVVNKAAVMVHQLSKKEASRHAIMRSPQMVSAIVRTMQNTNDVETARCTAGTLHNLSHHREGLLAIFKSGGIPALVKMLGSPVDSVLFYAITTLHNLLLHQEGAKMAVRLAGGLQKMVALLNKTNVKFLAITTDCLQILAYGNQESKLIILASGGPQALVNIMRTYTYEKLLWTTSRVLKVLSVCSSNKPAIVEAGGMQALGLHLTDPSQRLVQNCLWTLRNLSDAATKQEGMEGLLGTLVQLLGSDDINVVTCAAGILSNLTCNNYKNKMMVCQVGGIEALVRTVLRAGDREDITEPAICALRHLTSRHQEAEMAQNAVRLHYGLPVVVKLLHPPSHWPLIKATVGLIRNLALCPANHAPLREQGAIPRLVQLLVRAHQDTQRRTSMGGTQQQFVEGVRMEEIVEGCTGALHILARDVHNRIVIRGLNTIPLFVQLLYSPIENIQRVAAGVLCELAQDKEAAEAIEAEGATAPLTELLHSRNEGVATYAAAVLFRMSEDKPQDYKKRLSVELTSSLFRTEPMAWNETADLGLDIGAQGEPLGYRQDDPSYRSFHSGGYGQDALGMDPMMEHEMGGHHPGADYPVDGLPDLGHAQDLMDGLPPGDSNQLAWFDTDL


Target: T1, B-cat-Halo
Test: cell-based or functional assay

NanoBRET Abs IC50 [µM]	Binder
3.5	Ac-[αAllylPro]D[tBuAla][B5(4)]D[Phe(3-COOH)]AAF[MorphGln][PyrS2″][2F3MeF][Bta][MorphGln]-NH2 (staple 1-4, 4-11; not fully specified; printed as Ac-PL3-Asp-Npg-B5-Asp-3COOHF-Ala-Ala-Phe-MorphGln-PyrS2-2F3MeF-BztA-MorphGln-NH2) [I-2546]
4	Ac-[αAllylPro]D[tBuAla][B5(4)]D[Phe(3-COOH)]AAF[Me2Gln][PyrS2″][Phe(2-CF3)][Bta][MorphGln]-NH2 (staple 1-4, 4-11; not fully specified; printed as Ac-PL3-Asp-Npg-B5-Asp-3COOHF-Ala-Ala-Phe-Me2Gln-PyrS2-2F3MeF-BztA-MorphGln-NH2) [I-2545]
7.3	Ac-[αAllylPro]D[tBuAla][B5(4)]D[Phe(3-COOH)]AAFF[PyrS2″][Phe(2-CF3)][Bta][MorphGln]-NH2 (staple 1-4, 4-11) [I-2543]
3.5	Ac-[αAllylPro]D[tBuAla][B5(4)]D[Phe(3-COOH)]AAF[MorphGln][PyrS2″][Phe(2-CF3)][Bta][Me2Gln]-NH2 (staple 1-4, 4-11; not fully specified; printed as Ac-PL3-Asp-Npg-B5-Asp-3COOHF-Ala-Ala-Phe-MorphGln-PyrS2-2F3MeF-BztA-Me2Gln-NH2) [I-2538]
4	Ac-[αAllylPro]D[tBuAla][B5(4)]D[Phe(3-COOH)]AAF[Nle][PyrS2″][Phe(2-CF3)][Bta][MorphGln]-NH2 (staple 1-4, 4-11) [I-2542]
4.1	Ac-[αAllylPro]D[tBuAla][B5(4)]D[Phe(3-COOH)]AAF[Me2Gln][PyrS2″][2F3MeF][Bta][MorphGln]-NH2 (staple 1-4, 4-11; not fully specified; printed as Ac-PL3-Asp-Npg-B5-Asp-3COOHF-Ala-Ala-Phe-Me2Gln-PyrS2-2F3MeF-BztA-MorphGln-NH2) [I-2544]
4.7	Ac-[αAllylPro]D[tBuAla][B5(4)]D[Phe(3-COOH)]AAFL[PyrS2″][Phe(2-CF3)][Bta][MorphGln]-NH2 (staple 1-4, 4-11) [I-2541]
3.6	Ac-[αAllylPro]D[tBuAla][B5(4)]D[Phe(3-COOH)]AAF[AcLys][PyrS2″][2F3MeF][Bta][Me2Gln]-NH2 (staple 1-4, 4-11; not fully specified; printed as Ac-PL3-Asp-Npg-B5-Asp-3COOHF-Ala-Ala-Phe-AcLys-PyrS2-2F3MeF-BztA-Me2Gln-NH2) [I-2539]
3.5	Ac-[αAllylPro]D[tBuAla][B5(4)]D[Phe(3-COOH)]AAF[AcLys″][PyrS2″][Phe(2-CF3)][Bta][Me2Gln]-NH2 (staple 1-4, 4-11; not fully specified; printed as Ac-PL3-Asp-Npg-B5-Asp-3COOHF-Ala-Ala-Phe-AcLys-PyrS2-2F3MeF-BztA-Me2Gln-NH2) [I-2540]
3.5	Ac-[αAllylPro]D[tBuAla][B5(4)]D[Phe(3-COOH)]AAF[MorphGln][PyrS2″][2F3MeF][Bta][MorphGln]-NH2 (staple 1-4, 4-11; not fully specified; printed as Ac-PL3-Asp-Npg-B5-Asp-3COOHF-Ala-Ala-Phe-MorphGln-PyrS2-2F3MeF-BztA-MorphGln-NH2) [I-2547]
